Source: US20250136687A1 (SHANDONG SIMCERE BIOPHARMACEUTICAL, published 2025)

Columns and labels:
[1] = molecular target: T1, human CD3 on the cell surface (Jurkat cells, expanded human T cells, Jurkat-Lucia NFAT cells, human PBMC) (human, UniProt P07766 23-207; P04234 22-171; P09693 23-182); assay: cell-based or functional assay
[2] = molecular target: T1, human CD3 on the cell surface (Jurkat …); assay: FACS, Jurkat cells, hybridoma screening
Experimental: (§1) Suspension cells Jurkat cells (purchased from Cell bank of Chinese Academy of Sciences) were scale-up cultured in T-175 cell culture flasks to the logarithmic growth phase, the supernatant of the medium was discarded by centrifugation, and the cell pellet was washed 2 times with PBS. After counting the cells in the previous step, the cell pellet was resuspended with [PBS+2% (w/v) FBS] blocking solution to 4×10⁶ cells/ml, and added to a 96-well FACS reaction plate at 50 μl/well, the supernatant was removed by centrifugation, detection antibodies (initial concentration of […], gradient dilution at 1:5) and an IgG negative control were added at 100 μl/well, the cells were uniformly mixed, and incubated on ice for 1 h. The cells were centrifuged and washed 3 times with a PBS buffer. […] The cells were centrifuged and washed 5 times with a PBS buffer, and FACS (FACS Canto II, purchased from BD Company) was used for detection and result analysis. Data analysis was performed by software (CellQuest) to obtain the mean fluorescence intensity (MFI) of the cells. And then software (GraphPad Prism8) was used for analysis, data fitting, and EC50 value calculation.
(§2) The binding of the supernatant of the hybridoma to human CD3ε/δ-His (purchased from Sino Biological, Inc. (China), catalog number: CT038-H2508H) and monkey CD3ε/δ-His (purchased from Acrobiosystems, CDD-C52W4) was detected by ELISA for the screening of the supernatant of the hybridoma (see Example 10.1 below). The binding of the supernatant of the ELISA positive hybridoma clone to Jurkat cells and monkey T cells was detected by flow cytometry, and the activation of Jurkat-Lucia NFAT cells (purchased from InvivoGen, catalog number: jktl-nfat) by the supernatant of the hybridoma was detected by a reporter gene system (see Example 2.1, Example 2.4 and Example 7.1 below for the method).

human CD3ε/δ-His = molecular target: T2, human CD3ε/δ-His (human, UniProt P07766 23-126; P04234 22-105); assay: ELISA, coated antigen, hybridoma screening
T2 construct: Bought recombinant heterodimer with His tag; also called human CD3ε/δ protein
Description: as §2
(§3) To detect the binding activity of the humanized antibodies to CD3 protein, CD3 protein was diluted with PBS to the final concentration of […], then added to a 96-well ELISA plate at 50 μL/well, and the plate was sealed with a plastic film, and incubated overnight at 4° C. On the next day, the plate was washed 2 times with PBS, and a blocking solution [PBS+2% (v/v) BSA] was added for blocking at room temperature for 2 h. The blocking solution was poured off, and the antibody (initial concentration of 100 nM, and gradient dilution at 1:10) or a negative control antibody was added at 50 µl/well. After incubation at 37° C. for 2 h, the plate was washed 3 times with PBS. […] TMB substrate was added at 50 μl/well, and incubated at room temperature for 10 min, and then a stop solution (1.0 N HCl) was added at 50 μl/well. The OD450 nm values were read by an ELISA microplate reader (Multimode Plate Reader, EnSight, purchased from Perkin Elmer).

monkey CD3ε/δ-His = molecular target: T3, monkey CD3ε/δ-His (monkey, UniProt Q95LI5 22-117; Q95LI8 22-105); assay: ELISA, coated antigen, hybridoma screening
T3 construct: Bought recombinant heterodimer with His tag
Description: as §2, §3

[3] = molecular target: T4, cynomolgus monkey CD3 on the surface of expanded monkey T cells (cynomolgus monkey, UniProt Q95LI5 22-198; Q95LI8 22-171; Q95LI7 23-181); assay: FACS, monkey T cells, hybridoma screening
T4 construct: whole, on cells; Endogenous CD3 within the TCR-CD3 complex on T cells expanded from cynomolgus monkey PBMC
Experimental: as §1, §2

T3 sequence (Q95LI5 22-117, stated change not applied, form in doubt, chain 1 of 2): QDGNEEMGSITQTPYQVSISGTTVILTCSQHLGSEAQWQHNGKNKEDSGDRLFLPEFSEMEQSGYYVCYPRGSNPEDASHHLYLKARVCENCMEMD
T3 sequence (Q95LI8 22-105, stated change not applied, form in doubt, chain 2 of 2): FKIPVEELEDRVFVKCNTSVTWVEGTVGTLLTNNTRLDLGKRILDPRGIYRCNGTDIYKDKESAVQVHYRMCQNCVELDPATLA
T4 sequence (Q95LI5 22-198, chain 1 of 3): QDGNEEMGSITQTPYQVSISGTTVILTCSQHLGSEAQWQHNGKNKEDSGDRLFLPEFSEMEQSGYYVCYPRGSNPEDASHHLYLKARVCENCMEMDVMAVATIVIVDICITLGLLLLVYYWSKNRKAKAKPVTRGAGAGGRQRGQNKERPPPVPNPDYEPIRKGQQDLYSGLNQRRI
T4 sequence (Q95LI8 22-171, chain 2 of 3): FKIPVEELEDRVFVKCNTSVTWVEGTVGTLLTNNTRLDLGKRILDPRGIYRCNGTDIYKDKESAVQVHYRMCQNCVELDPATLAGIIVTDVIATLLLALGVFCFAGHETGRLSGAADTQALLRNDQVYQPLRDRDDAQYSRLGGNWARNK
T4 sequence (Q95LI7 23-181, chain 3 of 3): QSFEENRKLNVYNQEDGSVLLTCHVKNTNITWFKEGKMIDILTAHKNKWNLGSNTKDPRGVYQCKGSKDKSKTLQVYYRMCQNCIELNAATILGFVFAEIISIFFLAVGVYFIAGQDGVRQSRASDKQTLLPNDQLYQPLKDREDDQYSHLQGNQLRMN
T1 sequence (P07766 23-207, chain 1 of 3): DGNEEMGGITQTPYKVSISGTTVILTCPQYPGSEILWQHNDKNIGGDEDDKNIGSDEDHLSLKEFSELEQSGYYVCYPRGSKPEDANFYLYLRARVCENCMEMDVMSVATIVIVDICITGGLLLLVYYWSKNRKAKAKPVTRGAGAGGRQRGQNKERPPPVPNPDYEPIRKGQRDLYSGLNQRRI
T1 sequence (P04234 22-171, chain 2 of 3): as the sequence (Q95LI8 22-171, chain 2 of 3) above, with V5I, K15N, V20I, T32S, N33D, N34I, A64T, N74S, L83V, R141H counted along it
T1 sequence (P09693 23-182, chain 3 of 3): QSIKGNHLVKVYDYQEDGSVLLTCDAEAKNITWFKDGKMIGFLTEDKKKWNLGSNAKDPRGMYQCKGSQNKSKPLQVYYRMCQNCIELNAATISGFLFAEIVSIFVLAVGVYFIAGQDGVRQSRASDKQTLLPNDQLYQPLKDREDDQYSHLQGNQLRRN
T2 sequence (P07766 23-126, stated change not applied, form in doubt, chain 1 of 2): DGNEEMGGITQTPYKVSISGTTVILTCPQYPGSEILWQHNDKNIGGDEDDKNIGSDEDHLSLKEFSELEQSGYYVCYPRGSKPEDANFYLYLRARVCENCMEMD
T2 sequence (P04234 22-105, stated change not applied, form in doubt, chain 2 of 2): as the sequence (Q95LI8 22-105, stated change not applied, form in doubt, chain 2 of 2) above, with V5I, K15N, V20I, T32S, N33D, N34I, A64T, N74S, L83V counted along it

| Binder | Reporter assay (RLU), Jurkat-Lucia NFAT, supernatant diluted by 4 times [1] [RLU] | Reporter assay (RLU), Jurkat-Lucia NFAT, supernatant diluted by 20 times [1] [RLU] | Mean fluorescence intensity [2] [MFI] | OD450 (human CD3ε/δ-His) [OD450] | OD450 (monkey CD3ε/δ-His) [OD450] | Mean fluorescence intensity [3] [MFI] |
| --- | --- | --- | --- | --- | --- | --- |
| 5-40.21 murine hybridoma antibody (supernatant) (antibody, V domains shown, Tested as hybridoma supernatant) VH: QVQLQQPGSELVRPGASVKLSCKASGYTFTSYWMHWVKQRPGQGLEWIGNTYPGSGSTNYDEKFKSKATLTVDSSSSTAYMQLSSLTSEDSAVYYCTRDRYGVYYFDYWGQGTTLTVSS VL: DIVMSQSPSSLAVSAGEKVTMSCKSSQSLLNSRTRKNYLAWYQQKPGQSPKLLIYWASTRESGVPDRFSGSGSGTDFTLTISSVQAEDLAVYYCTQSYNLRTFGGGTKLEIK | 18900 | 15600 | 6910 | 2.15 | 1.82 | 15200 |
| 5-7.13 murine hybridoma antibody (supernatant) (antibody, V domains shown, Tested as hybridoma supernatant) VH: QVQLQQPGTELVKPGASVKLSCKASGYTFTSYWVHWVKQRPGQGLEWIGNINPSDGVTNYNEKFKSRATLTVDKSSSTAYMQLSSLTSEDSAVYYCTRDAYGQYYFDDWGQGTTLTVSS VL: DIVMSQSPSSLVVSAGEKVTMSCKSSQSLLNSRTRKNYLAWYQQKPGQSPKLLIYWASVRDSGVPDRFTGSGSGTDFTLTISNVQAEDLAVYYCIQSYYLRTFGGGTILEIK | 24500 | 27800 | 8280 | 2.08 | 2.09 | 16300 |
| 1-22.6 murine hybridoma antibody (supernatant) (antibody, V domains shown, Tested as hybridoma supernatant) VH: QIPLVQSGPELKKPGETVKISCKTSGYTFTSYGMSWVKQAPGKGLKWMGWINTYSGVPTYADDFKGRFVFSLDTSASTAFLQINNLKNEDTATYFCARLKNNPFCWGQGSTLTVFS VL: DVLMTQSPLSLPVRLGDQASISCRSSQLILHSNGNTYLEWYLQKPGQSPKLLIYKVSNRFSGVPDRFSGSGSGTDFTLKISRVEAEDLGVYYCFQGSHFPWTFGGGTKLEIK | 16000 | 8890 | 767 | 2.17 | 3.08 | 20800 |

Further lines, results first:

| Reporter assay (RLU), Jurkat-Lucia NFAT, supernatant diluted by 4 times [1] [RLU] | Reporter assay (RLU), Jurkat-Lucia NFAT, supernatant diluted by 20 times [1] [RLU] | Mean fluorescence intensity [2] [MFI] | OD450 (human CD3ε/δ-His) [OD450] | OD450 (monkey CD3ε/δ-His) [OD450] | Mean fluorescence intensity [3] [MFI] | Binder |
| --- | --- | --- | --- | --- | --- | --- |
| 29000 | 34100 | 7050 | 2.01 | 1.74 | 32600 | 6-35.22 murine hybridoma antibody (supernatant) (antibody, V domains shown, Tested as hybridoma supernatant) VH: EVKLVESGGGLVQPGASLSLSCAASGFTFTDYYMSWVRQPPGKALEWLAMSRNKAKGHTIEYSSSVKGRFTISRDNSQSILYLQMNALRAEDSATYYCARDTYESYDGYFDVWGAGTTVIVSS VL: DIVMSQSPSSLAVSAGETVTMSCKSSQSLFNSRSRKNYLAWYQQKPGQTPKLLIYWASIRESGVPDRFTGSGSGTDFTLTISSVQAEDLAVYYCKQSYYLYTFGSGTKLEIK |
| 26200 | 21400 | 7240 | 2.06 | 1.94 | 36200 | 6-44.5 murine hybridoma antibody (supernatant) (antibody, V domains shown, Tested as hybridoma supernatant) VH: EVQLQQSGPELVKPGASVKMSCKASGHTFTSHIMHWVKQKPGQGLEWIGYINPNNDRTEYSEKFKGKATLTSDKSSSTAYMELSSLTSEDSAVYYCAGEAYYSNSLYAMDYWGQGTSVTVSS VL: DIVMSQSPSSLAVSAGEKVTMSCKSSQSLFNSRTRKNYLAWYQQKPGQSPELLIYWASTRESGVPVRFTGSGSGTDFTLTISSVQAEDLAVYYCKQSYYLRTFGGGTKLEVK |
| 27000 | 17800 | 895 | 2.04 | 2.14 | 3100 | 8-18.1 murine hybridoma antibody (supernatant) (antibody, V domains shown, Tested as hybridoma supernatant) VH: QVQLQQSGAELARPGASVKMSCKASGYIFTMNTMHWVKQRPGQGLEWIGYINPYSGYTKYNQIFKDKATLTADKSSSTAYMRLSSLTSEDSAVYYCLRGGEGVWGQGTTLTVSS VL: not shown |
| 27400 | 14800 | 284 | 1.56 | 1.46 | 1650 | 7-35.6 murine hybridoma antibody (supernatant) (antibody, V domains shown, Tested as hybridoma supernatant) VH: EVQLVESGGGLVQPKGSLKLSCAASGFTFNTYAMNWVRQAPGKGLEWVGRIRSKINNYATYYGDSVKDRFTISRDDSQSMFYLQMNNLKTEDTAMYYCVIHENYGSISWFAYWGQGTLVTVSA VL: QAVVTQESTLTTSPGETVTLTCRSSTGAVTTSNYANWVQEKPDHLFTGLIGGTNNRAPGVPARFSGSLIGDKAALTITGAQTEDEAIYFCALWYSNHWVFGGGTKLTVL |
